Experimental data from PMC4402527.
Where a chain is given by its changes, count along the chain named. Names and notes keep the numbering of the source.

B1: Recombinant mutant DAP5, E862K (natural protein)
chain: MESAIAEGGASRFSASSGGGGSRGAPQHYPKTAGNSEFLGKTPGQNAQKWIPARSTRRDDNSAANNSANEKERHDAIFRKVRGILNKLTPEKFDKLCLELLNVGVESKLILKGVILLIVDKALEEPKYSSLYAQLCLRLAEDAPNFDGPAAEGQPGQKQSTTFRRLLISKLQDEFENRTRNVDVYDKRENPLLPEEEEQRAIAKIKMLGNIKFIGELGKLDLIHESILHKCIKTLLEKKKRVQLKDMGEDLECLCQIMRTVGPRLDHERAKSLMDQYFARMCSLMLSKELPARIRFLLQDTVELREHHWVPRKAFLDNGPKTINQIRQDAVKDLGVFIPAPMAQGMRSDFFLEGPFMPPRMKMDRDPLGGLADMFGQMPGSGIGTGPGVIQDRFSPTMGRHRSNQLFNGHGGHIMPPTQSQFGEMGGKFMKSQGLSQLYHNQSQGLLSQLQGQSKDMPPRFSKKGQLNADEISLRPAQSFLMNKNQVPKLQPQITMIPPSAQPPRTQTPPLGQTPQLGLKTNPPLIQEKPAKTSKKPPPSKEELLKLTETVVTEYLNSGNANEAVNGVREMRAPKHFLPEMLSKVIILSLDRSDEDKEKASSLISLLKQEGIATSDNFMQAFLNVLDQCPKLEVDIPLVKSYLAQFAARAIISELVSISELAQPLESGTHFPLFLLCLQQLAKLQDREWLTELFQQSKVNMQKMLPEIDQNKDRMLEILEGKGLSFLFPLLKLEKELLKQIKLDPSPQTIYKWIKDNISPKLHVDKGFVNILMTSFLQYISSEVNPPSDETDSSSAPSKEQLEQEKQLLLSFKPVMQKFLHDHVDLQVSALYALQVHCYNSNFPKGMLLRFFVHFYDMEIIKEEAFLAWKEDITQEFPGKGKALFQVNQWLTWLETAEEEESEEEAD
B2: Recombinant human DAP5 (1–907) (natural protein)
chain: B1 chain with K862E

Biological target: eIF2β of rabbit reticulocyte lysate (rabbit (endogenous in reticulocyte lysate)) (UniProt P41035)
Chain of UniProt P41035 (P41035 whole entry): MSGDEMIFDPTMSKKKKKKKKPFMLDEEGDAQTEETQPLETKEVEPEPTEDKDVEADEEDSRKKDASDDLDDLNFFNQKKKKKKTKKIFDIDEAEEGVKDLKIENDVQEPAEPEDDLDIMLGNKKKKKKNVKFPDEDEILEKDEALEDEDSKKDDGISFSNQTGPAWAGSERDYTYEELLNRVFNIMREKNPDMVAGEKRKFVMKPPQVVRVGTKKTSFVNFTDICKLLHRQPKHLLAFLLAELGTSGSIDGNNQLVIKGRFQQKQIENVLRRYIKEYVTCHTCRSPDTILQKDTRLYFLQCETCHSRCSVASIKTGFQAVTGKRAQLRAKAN

| Binder | fold stimulation of m7GpppG-Bcl2 5′UTR-FL-poly(A)35 mRNA (25 ng) translation in nuclease treated RRL by 1.6 pmol protein (luciferase) |
| --- | --- |
| B1 | 1.65 fold |
| B2 | 4 fold |
